Results on 1 molecule are retold here after article PMC4390438.

For the experiment, the target named is T1, dopamine D2 receptor (mouse (endogenous in C57BL/6 brain slices)), P61168.
T1 chain: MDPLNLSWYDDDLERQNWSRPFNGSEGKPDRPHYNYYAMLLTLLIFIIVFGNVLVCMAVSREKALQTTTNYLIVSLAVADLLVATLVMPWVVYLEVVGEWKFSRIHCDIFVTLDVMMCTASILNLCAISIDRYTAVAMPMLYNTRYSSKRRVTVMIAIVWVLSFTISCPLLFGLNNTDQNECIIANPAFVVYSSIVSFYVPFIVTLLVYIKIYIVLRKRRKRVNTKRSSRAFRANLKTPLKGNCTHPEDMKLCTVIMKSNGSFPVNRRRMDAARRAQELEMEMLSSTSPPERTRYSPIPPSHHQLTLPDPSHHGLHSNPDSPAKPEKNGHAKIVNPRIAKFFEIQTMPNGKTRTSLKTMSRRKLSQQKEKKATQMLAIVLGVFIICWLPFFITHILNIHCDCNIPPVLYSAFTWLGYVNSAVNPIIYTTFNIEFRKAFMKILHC
Nature of the experiment: proximity ligation. The following applies: remark: other sources report otherwise.

B1: dopamine D1 receptor, Q61616 1-446 (receptor)
chain: MAPNTSTMDETGLPVERDFSFRILTACFLSLLILSTLLGNTLVCAAVIRFRHLRSKVTNFFVISLAVSDLLVAVLVMPWKAVAEIAGFWPFGSFCNIWVAFDIMCSTASILNLCVISVDRYWAISSPFQYERKMTPKAAFILISVAWTLSVLISFIPVQLSWHKAKPTWPLDGNFTSLEDAEDDNCDTRLSRTYAISSSLISFYIPVAIMIVTYTSIYRIAQKQIRRISALERAAVHAKNCQTTTGNGNPVECSQSESSFKMSFKRETKVLKTLSVIMGVFVCCWLPFFISNCMVPFCGSEETQPFCIDSITFDVFVWFGWANSSLNPIIYAFNADFQKAFSTLLGCYRLCPTTNNAIETVSINNNGAVMFSSHHEPRGSISKDCNLVYLIPHAVGSSEDLKREEAGGIPKPLEKLSPALSVILDYDTDVSLEKIQPVTHSGQHST
B1: the PLA dots per µm^2 was found to be 0.283 dots/µm^2.
